This data set deals with MBP-CCA1 (Arabidopsis thaliana, UniProt P92973 1-608). Kind of data set: EMSA; 100 ng protein; 100 ng poly(dI-dC); EMSA: 10 mM Tris-HCl pH 7.6, 50 mM NaCl, 1 mM EDTA, 5 mM DTT, 5% glycerol, 100 ng poly(dI-dC), 30 min, room temperature; 6% native PAGE. The settings on record: protein: recombinant; tags: MBP (N-terminal, pMAL-c2X); label: 32P end label. (In general: A gel shift assay detects complexes by their altered migration in electrophoresis.)
Sequence of MBP-CCA1 (P92973 whole entry): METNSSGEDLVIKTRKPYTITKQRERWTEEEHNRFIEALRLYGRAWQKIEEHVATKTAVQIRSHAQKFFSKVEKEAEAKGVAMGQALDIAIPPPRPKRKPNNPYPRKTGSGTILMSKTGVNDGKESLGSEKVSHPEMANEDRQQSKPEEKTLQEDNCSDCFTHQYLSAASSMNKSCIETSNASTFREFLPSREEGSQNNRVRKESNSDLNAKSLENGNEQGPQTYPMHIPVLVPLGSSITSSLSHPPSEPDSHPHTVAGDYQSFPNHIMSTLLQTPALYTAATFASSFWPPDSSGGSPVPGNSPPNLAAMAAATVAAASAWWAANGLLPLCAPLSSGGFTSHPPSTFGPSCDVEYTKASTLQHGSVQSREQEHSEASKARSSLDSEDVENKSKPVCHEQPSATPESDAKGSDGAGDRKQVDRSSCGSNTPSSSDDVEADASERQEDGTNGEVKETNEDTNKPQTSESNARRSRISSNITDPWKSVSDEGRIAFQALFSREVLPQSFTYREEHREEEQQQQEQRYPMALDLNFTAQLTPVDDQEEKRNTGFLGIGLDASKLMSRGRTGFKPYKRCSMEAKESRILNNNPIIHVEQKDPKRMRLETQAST

B1: FT CBS (dsDNA)
DNA 1: GCTTTAGATTTTTAATAG
DNA 2: CTATTAAAAATCTAAAGC
As for B1, the binding result is listed as “binds”.

B2: FT EE (dsDNA)
DNA 1: TAATTAAAATATCTGCAAA
DNA 2: TTTGCAGATATTTTAATTA
Take B2: the binding result is listed as “binds”.

The values are drawn from PMC4875590, “LATE ELONGATED HYPOCOTYL regulates photoperiodic flowering via the circadian clock in Arabidopsis”.
